From patent US20160264647A1 (US Dept. of Health and Human Services, published 2016)

T1: MERS-CoV spike glycoprotein (S) (MERS-CoV, UniProt K9N5Q8 18-1353)
T1 sequence: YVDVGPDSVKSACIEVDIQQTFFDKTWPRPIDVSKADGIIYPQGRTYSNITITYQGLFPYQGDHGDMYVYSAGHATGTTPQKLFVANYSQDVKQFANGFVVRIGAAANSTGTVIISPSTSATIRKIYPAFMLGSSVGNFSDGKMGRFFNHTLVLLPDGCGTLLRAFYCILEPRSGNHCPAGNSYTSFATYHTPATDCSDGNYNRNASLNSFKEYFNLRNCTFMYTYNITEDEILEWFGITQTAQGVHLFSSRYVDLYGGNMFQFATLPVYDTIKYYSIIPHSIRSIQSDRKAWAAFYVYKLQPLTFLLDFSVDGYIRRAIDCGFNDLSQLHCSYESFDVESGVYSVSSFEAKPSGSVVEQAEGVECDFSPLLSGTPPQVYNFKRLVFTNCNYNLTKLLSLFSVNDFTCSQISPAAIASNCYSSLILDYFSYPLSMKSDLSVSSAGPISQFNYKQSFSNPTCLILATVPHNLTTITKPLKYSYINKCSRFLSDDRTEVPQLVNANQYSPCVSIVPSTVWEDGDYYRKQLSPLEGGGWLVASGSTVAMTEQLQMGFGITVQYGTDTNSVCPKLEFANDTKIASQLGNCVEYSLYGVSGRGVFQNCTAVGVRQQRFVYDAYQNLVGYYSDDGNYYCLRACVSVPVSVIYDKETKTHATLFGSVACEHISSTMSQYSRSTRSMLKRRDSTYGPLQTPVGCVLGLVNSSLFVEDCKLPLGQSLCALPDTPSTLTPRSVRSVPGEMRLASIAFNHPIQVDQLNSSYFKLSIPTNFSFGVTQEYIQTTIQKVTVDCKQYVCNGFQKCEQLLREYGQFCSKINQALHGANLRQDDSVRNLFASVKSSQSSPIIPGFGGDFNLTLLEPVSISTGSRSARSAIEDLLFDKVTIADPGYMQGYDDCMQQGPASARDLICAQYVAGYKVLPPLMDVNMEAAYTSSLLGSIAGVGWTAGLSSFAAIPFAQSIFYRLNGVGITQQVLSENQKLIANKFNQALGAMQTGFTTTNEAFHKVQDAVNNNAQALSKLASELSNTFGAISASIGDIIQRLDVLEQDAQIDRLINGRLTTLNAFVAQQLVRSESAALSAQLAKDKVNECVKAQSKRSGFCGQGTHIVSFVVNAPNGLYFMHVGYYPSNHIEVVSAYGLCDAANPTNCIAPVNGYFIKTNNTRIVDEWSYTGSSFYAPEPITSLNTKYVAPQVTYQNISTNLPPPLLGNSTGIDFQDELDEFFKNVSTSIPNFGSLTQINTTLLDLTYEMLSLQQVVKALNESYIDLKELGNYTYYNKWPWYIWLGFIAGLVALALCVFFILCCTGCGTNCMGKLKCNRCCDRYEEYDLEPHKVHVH


Target: T1, MERS-CoV spike glycoprotein (S)
Test: cell-based or functional assay

| Binder | MERS-CoV pseudovirus neutralization (inhibition of viral entry) at 0.1 µg/ml [%] |
| --- | --- |
| IgG1 m338 (antibody, V domains shown) VH: QVQLQQSGAEVKKRGSSVKVSCKASGGTFSSYTISWVRQAPGQGLEWMGRIIPILGIANYAQKFQGRVTITADKSTSTAYMELSSLRSEDTAVYYCARDLYDSSGYYRNTDAFDIWGQGTMVTVSS VL: EIVMTQSPVTLSLSPGERATLSCRASQSVSSYLAWYQQKPGQAPRLLIYDASNRATGIPARFSGSGSGTDFTLTISSLEPEDFAVYYCQQYGSSPWTFGQGTKVEIKR | > 95 |
| IgG1 m337 (antibody, V domains shown) VH: QVQLQQSGAEVKKPGSSVKVSCKASGGTFSSYTISWVRQAPGQGLEWMGRIIPIFGTANYAQKFQGRVTITADKSTSTAYMELSSLRSEDTAVYYCARDLGPGGDSSGYYYGPGAFDIWGQGTMVTVSS VL: not shown | > 95 |
| IgG1 m336 (antibody, V domains shown) VH: QVQLVQSGAEVKKPGSSVKVSCKASGGTFSSYAISWVRQAPGQGLEWMGGIIPIFGTASYAQKFQGRVTITADKSTSTAYMELSSLRSEDTAVYYCARVGYCSSTSCNRGAFDIWGQGTMVTVSS VL: DIQLTQSPSSLSASVGDRVTITCRASQGIRNDLGWYQQKPGKAPKLLIYAASSLQSGVPSRFSGSGSGTDFTLTISSLQPEDFATYYCQQLNSYPLTFGGGTKVEIKR | > 95 |
